In patent publication US20230235013A1 (MABSOLVE, published 2023):
Changes are numbered by the printed parent chain. Numbers in names are those of the source. One block for each binder: values may come before it.

How the values were obtained:
[1] = biological target: T1, Sheep Fc-CD52 fusion protein (Absolute Antibody Cat. No. PR00205) (human, UniProt P31358 25-36); experiment: ELISA, antigen coated, antibody 5 µg/mL
T1 construct: bought; also called CD52 antigen; human CD52; not shown: sheep Fc

[2] = biological target: T2, human FcγRIIA (R131, Sino Biological Cat. No. 10374-H08H) (human, UniProt P12318 34-218); experiment: SPR, captured His-receptor
T2 construct: bought; also called human FcγRIIa R131 allele; FcγRII allele R131
T2 sequence (looked up): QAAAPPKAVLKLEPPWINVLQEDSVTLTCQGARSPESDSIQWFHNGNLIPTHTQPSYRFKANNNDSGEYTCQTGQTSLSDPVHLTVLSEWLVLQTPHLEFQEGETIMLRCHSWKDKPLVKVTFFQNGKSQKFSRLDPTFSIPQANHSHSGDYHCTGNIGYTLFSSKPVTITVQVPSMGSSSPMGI

[3] = biological target: T3, Histidine-tagged recombinant human FcγRI (CD64) (human, UniProt P12314 16-288); experiment: SPR, captured His-receptor
T3 construct: bought; also called Sino Biological Cat. No. 12056-H08H

[4] = biological target: T4, human FcγRIIIB (NA2 allotype, Sino Biological Cat. No. 11046-H08H) (human, UniProt O75015 17-200); experiment: SPR, captured His-receptor
T4 construct: bought; also called human FcγRIIIb NA2 allele

[5] = biological target: T5, human FcγRIIIA (F158, Sino Biological Cat. No. 10389-H08H) (human, UniProt P08637 17-208); experiment: SPR, captured His-receptor
T5 construct: bought; also called human FcγRIIIa F158 allele

[6] = biological target: T6, mouse FcγRI (Sino Biological Cat. No. 50086-M08H) (mouse, UniProt P26151 25-297); experiment: SPR, captured His-receptor
T6 construct: bought
T6 sequence (looked up): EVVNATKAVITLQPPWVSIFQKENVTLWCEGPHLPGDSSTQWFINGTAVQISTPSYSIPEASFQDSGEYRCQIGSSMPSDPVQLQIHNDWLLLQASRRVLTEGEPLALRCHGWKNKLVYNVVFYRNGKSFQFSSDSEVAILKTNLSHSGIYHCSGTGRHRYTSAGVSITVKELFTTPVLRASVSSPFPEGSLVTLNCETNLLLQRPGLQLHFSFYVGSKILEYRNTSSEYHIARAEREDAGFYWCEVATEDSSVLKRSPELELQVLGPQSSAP

[7] = biological target: human FcγRIIIa V158 allele (human, UniProt P08637 17-208, limits assumed); experiment: SPR, captured His-receptor
[8] = biological target: T7, human FcγRIIB (Sino Biological Cat. No. 10259-H08H) (human, UniProt P31994 43-217); experiment: SPR, captured His-receptor
T7 construct: bought
T7 sequence (looked up): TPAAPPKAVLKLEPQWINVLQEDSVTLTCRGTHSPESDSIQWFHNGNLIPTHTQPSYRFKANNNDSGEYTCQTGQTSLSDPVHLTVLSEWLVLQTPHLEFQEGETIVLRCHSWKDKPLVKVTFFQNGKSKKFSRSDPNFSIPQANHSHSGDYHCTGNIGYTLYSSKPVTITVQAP

human FcγRIIIA (F158) [9] = biological target: T8, human FcγRIIIA (F158) (human, UniProt P08637 17-208); experiment: SPR, FcγRIIIA captured
T8 construct: bought; F158 allele

rat FcγRI = biological target: T9, rat FcγRI (rat, UniProt A0A0B4J2J0 16-285); experiment: SPR, receptor captured on anti-His chip
T9 construct: bought; captured on anti-histidine chip
T9 sequence: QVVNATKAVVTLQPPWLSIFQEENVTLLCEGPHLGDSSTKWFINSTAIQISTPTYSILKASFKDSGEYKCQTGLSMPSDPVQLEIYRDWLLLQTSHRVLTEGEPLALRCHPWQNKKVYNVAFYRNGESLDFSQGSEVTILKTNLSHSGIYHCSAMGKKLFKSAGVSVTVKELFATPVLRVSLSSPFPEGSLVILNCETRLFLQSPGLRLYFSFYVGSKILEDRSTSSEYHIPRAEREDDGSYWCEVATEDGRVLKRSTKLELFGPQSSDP

rabbit FcγRI = biological target: T10, rabbit FcγRI (rabbit); experiment: SPR, receptor captured on anti-His chip
T10 construct: bought; captured on anti-histidine chip

mouse FcγRI = biological target: T11, mouse FcγRI (mouse, UniProt P26151 25-297); experiment: SPR, receptor captured on anti-His chip
T11 construct: bought; captured on anti-histidine chip
T11 sequence (looked up): T6 sequence (looked up)

human FcRn [10] = biological target: T12, human FcRn (human, UniProt P55899 24-297; P61769 21-119); experiment: SPR pH 6.0, FcRn captured; Expt 2
T12 construct: bought

human FcγRIIA (R131) = biological target: T13, human FcγRIIA (R131) (human, UniProt P12318 34-218, limits assumed); experiment: SPR, receptor captured on anti-His chip
T13 construct: bought; R131 allele
T13 sequence (looked up): T2 sequence (looked up)

[11] = biological target: T14, human FcγRIIIB (NA2 allotype) (human, UniProt O75015 17-200, limits assumed); experiment: SPR, receptor captured on anti-His chip
T14 construct: bought; NA2 allotype

[12] = biological target: T15, Histidine-tagged recombinant human FcγRI (CD64) (human, UniProt P12314 16-288, limits assumed); experiment: SPR, His-FcγRI captured; Expt 1;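 note: SPR at 25 °C on anti-His antibody chip capturing FcγRI, Fc-variant antibodies injected at 100 µg/mL for 1 min, signal near end of injection minus buffer blank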
T15 construct: bought

[13] = biological target: T15, Histidine-tagged recombinant human …; experiment: SPR, His-FcγRI captured; Expt 3;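 note: biacore T200 SPR at 25 °C, Fc-variant antibodies at 100 µg/mL flowed 1 min over anti-His-captured FcγRI, signal taken just before injection end minus a buffer blank cycle; antibody analyte injected at 100 µg/mL for 1 min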
cynomolgus monkey FcRn = biological target: T16, cynomolgus monkey FcRn (cynomolgus monkey, UniProt Q8SPV9 24-297; Q8SPW0 21-119); experiment: SPR pH 6.0, FcRn captured
T16 construct: bought; also called cynomolgus FcRn

[14] = biological target: T15, Histidine-tagged recombinant human …; experiment: SPR, His-FcγRI captured; Expt 2;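 note: biacore T200 SPR at 25 °C, Fc-variant antibodies at 100 µg/mL flowed 1 min over anti-His-captured receptor, signal read near injection end minus third buffer blank; antibody analyte injected at 100 µg/mL for 1 min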
human FcRn [15] = biological target: T12, human FcRn; experiment: SPR pH 6.0, FcRn captured; Expt 1
[16] = biological target: T15, Histidine-tagged recombinant human …; experiment: SPR, His-FcγRI captured; Expt 1 Rep 2;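 note: antibody analyte injected at 100 µg/mL for 1 min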
[17] = biological target: T15, Histidine-tagged recombinant human …; experiment: SPR, His-FcγRI captured; Expt 2 Rep 2;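 note: antibody analyte injected at 100 µg/mL for 1 min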
[18] = biological target: T15, Histidine-tagged recombinant human …; experiment: SPR, His-FcγRI captured; Expt 1 Rep 1;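 note: antibody analyte injected at 100 µg/mL for 1 min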
[19] = biological target: T15, Histidine-tagged recombinant human …; experiment: SPR, receptor captured on anti-His chip
human FcγRIIIA (F158) [20] = biological target: T8, human FcγRIIIA (F158); experiment: SPR, receptor captured on anti-His chip

Sequence of human FcγRIIIa V158 allele (P08637 17-208 F176V limits assumed): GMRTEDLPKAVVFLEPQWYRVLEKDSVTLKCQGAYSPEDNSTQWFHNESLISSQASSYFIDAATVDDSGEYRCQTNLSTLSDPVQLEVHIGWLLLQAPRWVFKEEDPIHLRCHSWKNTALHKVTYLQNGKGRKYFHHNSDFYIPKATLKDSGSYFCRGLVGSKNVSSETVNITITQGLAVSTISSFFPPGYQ
T8 sequence (P08637 17-208 limits assumed): as the sequence (P08637 17-208 F176V limits assumed) above, with V160F counted along it
T5 sequence (P08637 17-208 limits assumed): as the sequence (P08637 17-208 F176V limits assumed) above, with V160F counted along it

B3: anti-CD20 human IgG1 L234Q/L235S/G236R (antibody)
heavy: QVQLQQPGAELVKPGASVKMSCKASGYTFTSYNMHWVKQTPGRGLEWIGAIYPGNGDTSYNQKFKGKATLTADKSSSTAYMQLSSLTSEDSAVYYCARSTYYGGDWYFNVWGAGTTVTVSSASTKGPSVFPLAPSSKSTSGGTAALGCLVKDYFPEPVTVSWNSGALTSGVHTFPAVLQSSGLYSLSSVVTVPSSSLGTQTYICNVNHKPSNTKVDKKVEPKSCDKTHTCPPCPAPEQSRGPSVFLFPPKPKDTLMISRTPEVTCVVVDVSHEDPEVKFNWYVDGVEVHNAKTKPREEQYNSTYRVVSVLTVLHQDWLNGKEYKCKVSNKALPAPIEKTISKAKGQPREPQVYTLPPSRDELTKNQVSLTCLVKGFYPSDIAVEWESNGQPENNYKTTPPVLDSDGSFFLYSKLTVDKSRWQQGNVFSCSVMHEALHNHYTQKSLSLSPGK
light: QIVLSQSPAILSASPGEKVTMTCRASSSVSYIHWFQQKPGSSPKPWIYATSNLASGVPVRFSGSGSGTSYSLTISRVEAEDAATYYCQQWTSNPPTFGGGTKLEIKRTVAAPSVFIFPPSDEQLKSGTASVVCLLNNFYPREAKVQWKVDNALQSGNSQESVTEQDSKDSTYSLSSTLTLSKADYEKHKVYACEVTHQGLSSPVTKSFNRGEC
notes: also called 2-33; 10.77
Corrected response (RU) (human FcγRIIIA (F158) [9]): 2.7 RU
Corrected response (RU) (rat FcγRI): 0.6 RU
Corrected response (RU) (rabbit FcγRI): 0.9 RU
Corrected response (RU) (mouse FcγRI): 0.5 RU
Corrected response (RU) (human FcRn [10]): 496 RU
Corrected response (RU) (human FcγRIIA (R131)): 1.8 RU
Corrected response (RU) [11]: 2.3 RU
Corrected response (RU) [12]: -1.8 RU
Corrected response (RU) [13]: 3.8 RU
Corrected response (RU) (cynomolgus monkey FcRn): 1170 RU
Corrected response (RU) [14]: 1.6 RU
Corrected response (RU) (human FcRn [15]): 488 RU

B4: anti-CD20 human IgG1 L235T/G236R (antibody)
heavy: not shown
light: B3 light
notes: also called 2-86
Corrected response (RU) [16]: -10.6 RU
Corrected response (RU) [17]: 0 RU
Corrected response (RU) [18]: -9.4 RU

B5: anti-CD20 human IgG1 L234S/L235T (antibody)
heavy: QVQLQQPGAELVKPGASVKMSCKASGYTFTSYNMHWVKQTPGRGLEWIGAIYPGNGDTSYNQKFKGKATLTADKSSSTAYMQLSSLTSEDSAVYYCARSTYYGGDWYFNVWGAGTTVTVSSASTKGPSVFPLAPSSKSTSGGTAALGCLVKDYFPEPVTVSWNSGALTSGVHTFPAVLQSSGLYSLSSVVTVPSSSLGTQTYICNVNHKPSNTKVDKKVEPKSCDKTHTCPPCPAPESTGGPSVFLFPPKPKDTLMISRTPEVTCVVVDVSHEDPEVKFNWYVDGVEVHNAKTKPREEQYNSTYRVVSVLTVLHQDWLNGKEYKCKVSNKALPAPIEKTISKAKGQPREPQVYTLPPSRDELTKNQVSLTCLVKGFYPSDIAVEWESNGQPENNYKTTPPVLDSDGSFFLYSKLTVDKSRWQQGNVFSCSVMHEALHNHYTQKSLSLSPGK
light: B3 light
notes: also called 2-87
Corrected response (RU) [16]: 54.1 RU
Corrected response (RU) [17]: 62.4 RU
Corrected response (RU) [18]: 62.9 RU

B6: anti-CD20 human IgG1 N297Q (aglycosyl) (antibody)
heavy: not shown
light: B3 light
notes: also called 2-67
Corrected response (RU) (rat FcγRI): 1470 RU
Corrected response (RU) (rabbit FcγRI): 410 RU
Corrected response (RU) (mouse FcγRI): 49.3 RU
Corrected response (RU) [19]: 578 RU
Corrected response (RU) (human FcRn [10]): 430 RU
Corrected response (RU) (human FcγRIIA (R131)): 9.4 RU
Corrected response (RU) (human FcγRIIIA (F158) [20]): -1.4 RU
Corrected response (RU) (cynomolgus monkey FcRn): 1040 RU
Corrected response (RU) (human FcRn [15]): 426 RU

Results, then the binder that gave them:

Mean Absorbance [1]: 1.35 absorbance
binding result [2]: no binding (tested: 100 µg/mL)
binding result [3]: no binding (tested: 100 µg/mL)
binding result [4]: no binding (tested: 100 µg/mL)
binding result [5]: no binding (tested: 100 µg/mL)
binding result [6]: no binding (tested: 100 µg/mL)
binding result [7]: no binding (tested: 100 µg/mL)
binding result [8]: no binding (tested: 100 µg/mL)
B1: anti-CD52 human IgG1 L234T/L235Q/G236R (antibody)
heavy: QVQLQESGPGLVRPSQTLSLTCTVSGFTFTDFYMNWVRQPPGRGLEWIGFIRDKAKGYTTEYNPSVKGRVTMLVDTSKNQFSLRLSSVTAADTAVYYCAREGHTAAPFDYWGQGSLVTVSSASTKGPSVFPLAPSSKSTSGGTAALGCLVKDYFPEPVTVSWNSGALTSGVHTFPAVLQSSGLYSLSSVVTVPSSSLGTQTYICNVNHKPSNTKVDKKVEPKSCDKTHTCPPCPAPETQRGPSVFLFPPKPKDTLMISRTPEVTCVVVDVSHEDPEVKFNWYVDGVEVHNAKTKPREEQYNSTYRVVSVLTVLHQDWLNGKEYKCKVSNKALPAPIEKTISKAKGQPREPQVYTLPPSRDELTKNQVSLTCLVKGFYPSDIAVEWESNGQPENNYKTTPPVLDSDGSFFLYSKLTVDKSRWQQGNVFSCSVMHEALHNHYTQKSLSLSPGK
light: not shown
notes: also called 4-60; copies: 2 + 2

Mean Absorbance [1]: 1.48 absorbance
binding result [2]: no binding (tested: 100 µg/mL)
binding result [3]: no binding (tested: 100 µg/mL)
binding result [4]: no binding (tested: 100 µg/mL)
binding result [5]: no binding (tested: 100 µg/mL)
binding result [6]: no binding (tested: 100 µg/mL)
binding result [7]: no binding (tested: 100 µg/mL)
binding result [8]: no binding (tested: 100 µg/mL)
B2: anti-CD52 human IgG1 L234T/L235T/G236R (antibody)
heavy: B1 heavy with Q239T
light: not shown
notes: also called 4-63; copies: 2 + 2
